Here are results for one molecule from patent US20110243944A1 (SHANGHAI KEXIN BIOTECH, published 2011).

In this experiment the target is T1, RANK (Receptor Activator for Nuclear Factor κB) (UniProt Q9Y6Q6 30-616, limits assumed).
T1 construct: whole, on cells; Endogenous receptor on THP1 monocytes; also called RANKL receptor
T1 sequence (looked up): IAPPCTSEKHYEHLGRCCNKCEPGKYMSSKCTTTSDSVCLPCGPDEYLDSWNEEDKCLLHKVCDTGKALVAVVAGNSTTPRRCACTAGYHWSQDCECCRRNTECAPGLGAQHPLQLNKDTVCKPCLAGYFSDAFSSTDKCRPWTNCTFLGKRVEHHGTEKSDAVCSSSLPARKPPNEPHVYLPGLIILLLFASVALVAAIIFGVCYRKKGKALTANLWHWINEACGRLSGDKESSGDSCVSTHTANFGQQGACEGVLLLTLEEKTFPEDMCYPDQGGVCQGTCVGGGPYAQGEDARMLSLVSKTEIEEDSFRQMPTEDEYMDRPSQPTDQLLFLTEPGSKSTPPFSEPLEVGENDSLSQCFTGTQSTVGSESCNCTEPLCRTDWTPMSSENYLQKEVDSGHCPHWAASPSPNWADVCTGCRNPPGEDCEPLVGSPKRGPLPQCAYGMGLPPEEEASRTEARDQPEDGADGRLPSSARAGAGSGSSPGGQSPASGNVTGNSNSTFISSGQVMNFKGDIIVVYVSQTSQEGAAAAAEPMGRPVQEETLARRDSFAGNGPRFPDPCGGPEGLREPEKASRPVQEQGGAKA
Briefly: flow cytometry; 5 µg RIG on 1*10^6 THP1 monocytes, detected with FITC labeled anti human RANKL antibody. As for the experimental part:
1*10⁶ THP1 monocytes were grown in MCSF and RANKL medium for 72 hours and mixed with 5 μg purified RIG protein from Implementation 1 for additional 1 hour at 4° C. 5 μl FITC labeled anti human RANKL antibody (CALTAG, CA) was then added into the mixture and flow cytometry was used to examine FITC positive cells. […] In FIG. 4, SSC-H presents the pellet number in cytoplasm, FSC-H presents the cell size, FL2-H presents PE and FL1-H presents FITC.
(In general: In flow cytometry, cells or beads pass a laser one at a time.)

B1: fusion protein RIG (Fc fusion)
chain: MRRASRDYTKYLRGSEEMGGGPGAPHEGPLHAPPPPAPHQPPAASRSMFVALLGLGLGQVVCSVALFFYFRAQMDPNRISEDGTHCIYRILRLHENADFQDTTLESQDTKLIPDSCRRIKQAFQGAVQKELQHIVGSQHIRAEKAMVDGSWLDLAKRSKLEAQPFAHLTINATDIPSGSHKVSLSSWYHDRGWAKISNMTFSNGKLIVNQDGFYYLYANICFRHHETSGDLATEYLQLMVYVTKTSIKIPSSHTLMKGGSTKYWSGNSEFHFYSINVGGFFKLRSGEEISIEVSNPSLLDPDQDATYFGAFKVRDIDGSEPKSCDKTHTCPPCPAPELLGGPSVFLFPPKPKDTLMISATPEVTCVVVDVSHEDPEVKFMWYVDGVEVHNAKTKPAEEQYNSTYAVVSVLTVLHQDWLNGKEYKCKVSNKALPAPIEKTISKAKGQPAEPQVYTLPPSRDELTYNQVSLTCLVKGFYPSDIAVEWESNGQPENNYKTTPPVLDSDGSFFLYSKLTVDKSRWQQGNVFSCSVMHEALHNHYTQKSLSLSPGK
notes: also called RANKL-Fcγ fusion protein; RIG protein
Turning to B1, the binding result is “binds”.
